According to PMC4564341:

Assays:
[1] = target: CREB pKID αB peptide pKID αB helix (UniProt P16220); details: cited from earlier work
[2] = target: Mouse CBP KIX (residues 586-683) (mouse) (UniProt P45481); experiment: NMR titration
[3] = target: Mouse CBP KIX (residues 586-683) (mouse) (UniProt P45481); experiment: ITC

| Kd [2] | Kd2 (site 2, two-site model) [3] | Substance | Kd [1] |
| --- | --- | --- | --- |
|  |  | CBP KIX (from UniProt P45481) | 80 µM |
| 21 µM | 370 µM | CRTC1-MAML2 TAD1 polypeptide spanning residues 150-190 |  |
